The results in this text go back to article PMC5053343, “Improvement of free fatty acid production using a mutant acyl-CoA thioesterase I with high specific activity in Escherichia coli” (Biotechnology for Biofuels, 2016).

Substrate in the series: CCCCCCCCCCCCCCCC(=O)SCCNC(=O)CCNC(=O)[C@H](O)C(C)(C)COP(=O)(O)OP(=O)(O)OC[C@H]1O[C@@H](n2cnc3c(N)ncnc32)[C@H](O)[C@@H]1OP(=O)(O)O
The experiment in a line: purified protein. The format is biochemical, Escherichia coli. The note with it: 50 mM potassium phosphate pH 7.0, 80 ug/mL BSA, 0.1 mM DTNB, 3.1 x 10^-5 mM enzyme, 0-24 uM palmitoyl-CoA.

Substitutions are numbered along the chain they refer to. Names and notes keep the numbering of the source.

B1: 'TesA (leader sequence-deleted acyl-CoA thioesterase I) (Escherichia coli K-12) (protein)
chain: ADTLLILGDSLSAGYRMSASAAWPALLNDKWQSKTSVVNASISGDTSQQGLARLPALLKQHQPRWVLVELGGNDGLRGFQPQQTEQTLRQILQDVKAANAEPLLMQIRLPANYGRRYNEAFSAIYPKLAKEFDVPLLPFFMEEVYLKPQWMQDDGIHPNRDAQPFIADWMAKQLQPLVNHDS
notes: signal peptide removed (leaderless), C-terminal (His)6 tag from pET28a (NcoI/XhoI), kept; expressed in E. coli BL21(DE3), Ni-NTA purified
In the case of B1, the Km (commonly the substrate concentration at which the rate is half of its maximum) amounted to 6.69 µM; the kcat (as a rule, the number of substrate molecules converted per active site and unit of time at saturation) came to 20.75 s⁻¹.

B2: 'TesA (leader sequence-deleted acyl-CoA thioesterase I) (Escherichia coli K-12; R90C) (protein)
chain: B1 chain with R64C
notes: as for B1
Regarding B2, the Michaelis constant (Km) is 4.00 µM and the turnover number (kcat) turned out to be 27.12 s⁻¹.
